Measured values taken from patent publication US20050142582.

Tested on: USF1 (upstream stimulatory factor) (Ciona intestinalis)
Test: SPR
Settings: binding good, dimer

Sequence of USF1 (upstream stimulatory factor) (Ciona intestinalis) (chain, as listed by the source): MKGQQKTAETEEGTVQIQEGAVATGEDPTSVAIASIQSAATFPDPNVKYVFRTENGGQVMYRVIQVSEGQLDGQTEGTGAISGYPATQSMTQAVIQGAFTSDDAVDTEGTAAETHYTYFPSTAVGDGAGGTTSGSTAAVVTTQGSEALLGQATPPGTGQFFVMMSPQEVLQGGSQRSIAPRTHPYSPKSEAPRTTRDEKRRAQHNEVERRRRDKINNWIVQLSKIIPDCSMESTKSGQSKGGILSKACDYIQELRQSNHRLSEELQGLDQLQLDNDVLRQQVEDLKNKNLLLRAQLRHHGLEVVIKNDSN

Sequence	Kd
GGTATTGAGGGTCGCATCGGCAAAAAGGATTGCCCAGGTCTGCTGTCTAGCCGGATTCGATGGCTCTAACTCTCCTCT [6H1]	36 nM
GGTATTGAGGGTCGCATCGGCTTCAGGTTGGTCTGGTTGGGTTTGGCTCCTGTGTACGGATGGCTCTAACTCTCCTCT [6H5]	176 nM
